Assay results taken from patent US9994881B2, “Functionalized carboxylic acids and alcohols by reverse fatty acid oxidation in engineered microbes” (William Marsh Rice University, priority 2011, dated 2018).
Marks after values point to notes of the source that are not given here.

Assays:
Type in all cases: biochemical
[1] = forward thiolase assay (biosynthetic direction), coupled with caHBD; conditions: substrate Acetyl-CoA; supernatant fraction; AtoB expressed from pCA24N, FadA from pUCBB-ntH6
Protocol: (§1) Cultures for enzymatic assays were grown overnight in 100 mL of LB media at 37° C. in 250 mL baffled flasks (Wheaton Industries, Inc., Millville, N.J.) in E. coli BL21 (DE3) cells induced with either 1 mM IPTG (pCA24N, pTrcHis2A) or 1 mM Arabinose (pUCBB-pBAD) at an OD600˜0.6, or expressed constitutively (pUCBB-ntH6). Reactions were monitored on either a Synergy HT plate reader (BioTek Instruments, Inc., Winooski, Vt.) at 25° C. (for reactions monitored at 300 nm or higher) or in a Biomate 5 Spectrophotometer (Thermo Scientific, Waltham, Mass.) for reactions at 263 nm. […]
(§2) For kinetic characterization, his-tagged proteins of AtoB, FadA, FadB, caHBD, egTER were purified from the B-PER supernatant fractions using Talon Metal Affinity Resin (Clontech Laboratories, Inc., Mountain View, Calif.) using gravity purification. […] Enzyme concentration was established by measuring the absorbance at […] and extinction coefficients predicted for each enzyme by the ProtParam program (web.expasy.org/protparam/).
(§3) For kinetic characterization, an appropriate amount of enzyme was established by checking linear range near predicted KM values. Then, the rates were measured for a range of substrates in order to establish kcat and KM. […]

[2] = thiolase activity in the reverse direction (loss of acetoacetyl-CoA at 303 nm); conditions: substrate Acetoacetyl-CoA; supernatant fraction; AtoB expressed from pCA24N, FadA from pUCBB-ntH6
Protocol: as §1, §2, §3

[3] = crotonase activity (loss of crotonoyl-CoA at 263 nm); conditions: substrate Crotonyl-CoA; supernatant fraction; expressed from pUCBB-ntH6
Protocol: as §1, §2, §3

[4] = β-hydroxybutyryl-CoA dehydrogenase assay (NADH dependent reduction of acetoacetyl-CoA)
Protocol: as §1, §2, §3

[5] = crotonyl-CoA reductase activity (loss of NADH absorbance); conditions: substrate Crotonyl-CoA; supernatant fraction; expressed from pTrcHis2A
Protocol: as §1, §2, §3

[6] = Butyryl-CoA dehydrogenase activity utilizing ferricenium ion
Protocol: Cells were lysed using Bacterial Protein Extraction Reagent (B-PER) (Thermo Scientific, Waltham, Mass.) as per the prescribed protocol in order to obtain the supernatant containing the active enzymes. FadE and YdiO were purified following previously established methods^45 using the same growth conditions mentioned above.
Cell pellets were resuspended in 40 mL of 50 mM potassium phosphate buffer pH 7.2 and broken by disruption EmulsiFlex-05 homogenizer (Avestin, Ottawa, ON). Disrupted cells were then spun for 90 min at 4° C. at 120,000×g in a Optima L-80XP Ultracentrifuge (Beckman-Coulter, Schaumburg, Ill.) to produce the supernatant used for assays.
For specific activity assays (reported in μmol substrate/mg protein/min) these supernatant fractions were utilized and protein concentration was established using the Bradford Reagent (Thermo Scientific, Waltham, Mass.) using BSA as the protein standard. Linearity was established for each reaction and the background non-enzymatic rate was subtracted to establish the activity.
For FadE and YdiO, Butyryl-CoA dehydrogenase activity was measured utilizing ferricenium ion^49. Reactions were performed in 50 mM potassium phosphate pH 7.2, 0.4 mM MgSO4, 200 μM ferrocenium hexafluorophosphate, and 200 μM Butyryl-CoA and monitored the formation of the reduced ferrocene ion at 300 nm (ε=4.3 mM^−1 cm^−1).

B1: FadA: E. coli 3-ketoacyl-CoA thiolase (thiolase I), a component of fatty acid oxidation complex FadAB (protein, UniProt P21151 1-387, looked up)
3-ketoacyl-CoA thiolase FadA: MEQVVIVDAIRTPMGRSKGGAFRNVRAEDLSAHLMRSLLARNPALEAAALDDIYWGCVQQTLEQGFNIARNAALLAEVPHSVPAVTVNRLCGSSMQALHDAARMIMTGDAQACLVGGVEHMGHVPMSHGVDFHPGLSRNVAKAAGMMGLTAEMLARMHGISREMQDAFAARSHARAWAATQSAAFKNEIIPTGGHDADGVLKQFNYDEVIRPETTVEALATLRPAFDPVNGMVTAGTSSALSDGAAAMLVMSESRAHELGLKPRARVRSMAVVGCDPSIMGYGPVPASKLALKKAGLSASDIGVFEMNEAFAAQILPCIKDLGLIEQIDEKINLNGGAIALGHPLGCSGARISTTLLNLMERKDVQFGLATMCIGLGQGIATVFERV
[1]
  Specific Activity: Not detected^c
[2]
  Specific Activity: 0.013 ± 0.002^c μmol/mg/min

B2: FadB: E. coli hydroxyacyl-CoA dehydrogenase and enoyl-CoA hydratase, part of fatty acid oxidation complex (protein, UniProt P21177 1-729, looked up)
Fatty acid oxidation complex …: MLYKGDTLYLDWLEDGIAELVFDAPGSVNKLDTATVASLGEAIGVLEQQSDLKGLLLRSNKAAFIVGADITEFLSLFLVPEEQLSQWLHFANSVFNRLEDLPVPTIAAVNGYALGGGCECVLATDYRLATPDLRIGLPETKLGIMPGFGGSVRMPRMLGADSALEIIAAGKDVGADQALKIGLVDGVVKAEKLVEGAKAVLRQAINGDLDWKAKRQPKLEPLKLSKIEATMSFTIAKGMVAQTAGKHYPAPITAVKTIEAAARFGREEALNLENKSFVPLAHTNEARALVGIFLNDQYVKGKAKKLTKDVETPKQAAVLGAGIMGGGIAYQSAWKGVPVVMKDINDKSLTLGMTEAAKLLNKQLERGKIDGLKLAGVISTIHPTLDYAGFDRVDIVVEAVVENPKVKKAVLAETEQKVRQDTVLASNTSTIPISELANALERPENFCGMHFFNPVHRMPLVEIIRGEKSSDETIAKVVAWASKMGKTPIVVNDCPGFFVNRVLFPYFAGFSQLLRDGADFRKIDKVMEKQFGWPMGPAYLLDVVGIDTAHHAQAVMAAGFPQRMQKDYRDAIDALFDANRFGQKNGLGFWRYKEDSKGKPKKEEDAAVEDLLAEVSQPKRDFSEEEIIARMMIPMVNEVVRCLEEGIIATPAEADMALVYGLGFPPFHGGAFRWLDTLGSAKYLDMAQQYQHLGPLYEVPEGLRNKARHNEPYYPPVEPARPVGDLKTA
[3]
  Specific Activity: 0.051 ± 0.004^c μmol/mg/min
[4]; substrate Acetoacetyl-CoA, supernatant fraction, expressed from pUCBB-ntH6
  Specific Activity: 0.185 ± 0.001^c μmol/mg/min

B3: egTER: NAD(P)H-dependent trans-2-enoyl-CoA reductase from Euglena gracilis (protein, UniProt Q5EU90 69-539, looked up)
Trans-2-enoyl-CoA reductase: VPQMAEGFSGEATSAWAAAGPQWAAPLVAAASSALALWWWAARRSVRRPLAALAELPTAVTHLAPPMAMFTTTAKVIQPKIRGFICTTTHPIGCEKRVQEEIAYARAHPPTSPGPKRVLVIGCSTGYGLSTRITAAFGYQAATLGVFLAGPPTKGRPAAAGWYNTVAFEKAALEAGLYARSLNGDAFDSTTKARTVEAIKRDLGTVDLVVYSIAAPKRTDPATGVLHKACLKPIGATYTNRTVNTDKAEVTDVSIEPASPEEIADTVKVMGGEDWELWIQALSEAGVLAEGAKTVAYSYIGPEMTWPVYWSGTIGEAKKDVEKAAKRITQQYGCPAYPVVAKALVTQASSAIPVVPLYICLLYRVMKEKGTHEGCIEQMVRLLTTKLYPENGAPIVDEAGRVRVDDWEMAEDVQQAVKDLWSQVSTANLKDISDFAGYQTEFLRLFGFGIDGVDYDQPVDVEADLPSAAQQ
[5]
  Specific Activity: 5.4 ± 0.6^d μmol/mg/min

B4: FadE: E. coli acyl-CoA dehydrogenase, a medium-long-chain fatty acyl-CoA dehydrogenase (protein, UniProt Q47146 1-814, looked up)
Acyl-coenzyme A dehydrogenase: MMILSILATVVLLGALFYHRVSLFISSLILLAWTAALGVAGLWSAWVLVPLAIILVPFNFAPMRKSMISAPVFRGFRKVMPPMSRTEKEAIDAGTTWWEGDLFQGKPDWKKLHNYPQPRLTAEEQAFLDGPVEEACRMANDFQITHELADLPPELWAYLKEHRFFAMIIKKEYGGLEFSAYAQSRVLQKLSGVSGILAITVGVPNSLGPGELLQHYGTDEQKDHYLPRLARGQEIPCFALTSPEAGSDAGAIPDTGIVCMGEWQGQQVLGMRLTWNKRYITLAPIATVLGLAFKLSDPEKLLGGAEDLGITCALIPTTTPGVEIGRRHFPLNVPFQNGPTRGKDVFVPIDYIIGGPKMAGQGWRMLVECLSVGRGITLPSNSTGGVKSVALATGAYAHIRRQFKISIGKMEGIEEPLARIAGNAYVMDAAASLITYGIMLGEKPAVLSAIVKYHCTHRGQQSIIDAMDITGGKGIMLGQSNFLARAYQGAPIAITVEGANILTRSMMIFGQGAIRCHPYVLEEMEAAKNNDVNAFDKLLFKHIGHVGSNKVRSFWLGLTRGLTSSTPTGDATKRYYQHLNRLSANLALLSDVSMAVLGGSLKRRERISARLGDILSQLYLASAVLKRYDDEGRNEADLPLVHWGVQDALYQAEQAMDDLLQNFPNRVVAGLLNVVIFPTGRHYLAPSDKLDHKVAKILQVPNATRSRIGRGQYLTPSEHNPVGLLEEALVDVIAADPIHQRICKELGKNLPFTRLDELAHNALVKGLIDKDEAAILVKAEESRLRSINVDDFDPEELATKPVKLPEKVRKVEAA
[6]; purified enzyme
  activity upon purification: no detectable activities
[6]; substrate Butyryl-CoA, crude extract of cells, expressed from pCA24N
  Specific Activity: 0.008 ± 0.001^b μmol/mg/min

B5: paaH: E. coli 3-hydroxyadipyl-CoA dehydrogenase that participates in the degradation of phenylacetate (protein, UniProt P76083 1-475, looked up)
3-hydroxyadipyl-CoA …: MMINVQTVAVIGSGTMGAGIAEVAASHGHQVLLYDISAEALTRAIDGIHARLNSRVTRGKLTAETCERTLKRLIPVTDIHALAAADLVIEAASERLEVKKALFAQLAEVCPPQTLLTTNTSSISITAIAAEIKNPERVAGLHFFNPAPVMKLVEVVSGLATAAEVVEQLCELTLSWGKQPVRCHSTPGFIVNRVARPYYSEAWRALEEQVAAPEVIDAALRDGAGFPMGPLELTDLIGQDVNFAVTCSVFNAFWQERRFLPSLVQQELVIGGRLGKKSGLGVYDWRAEREAVVGLEAVSDSFSPMKVEKKSDGVTEIDDVLLIETQGETAQALAIRLARPVVVIDKMAGKVVTIAAAAVNPDSATRKAIYYLQQQGKTVLQIADYPGMLIWRTVAMIINEALDALQKGVASEQDIDTAMRLGVNYPYGPLAWGAQLGWQRILRLLENLQHHYGEERYRPCSLLRQRALLESGYES
[4]; purified enzyme, data not shown
  specific activity toward the reduction of acetoacetyl-CoA: moderate
